In patent publication US20210324108A1 (Hoffmann-La Roche, published 2021):
Each block holds one binder with its values, some of them ahead of it.

Experiments:
recombinant human FAP = molecular target: T1, recombinant human FAP (human, UniProt Q12884 26-760); experiment: SPR, huFAP captured (anti-His), Ab analyte
T1 construct: exact construct not described; also called FAP ECD; not shown: The histidine tag (and any linker to it) implied by capture on an anti-histidine antibody
Procedure: Around 12000 resonance units (RU) of the capturing system (15 μg/ml anti-histidine antibody; Order Code: 28995056; GE Healthcare Bio-Sciences AB, Sweden) were coupled on a CMS chip (GE Healthcare BR-1005-30) at pH 4.5 by using an amine coupling kit supplied by the GE Healthcare. Running buffer for Immobilization was HBS-N pH 7.4 (10 mM HEPES, 150 mM NaCl, pH 7.4, GE Healthcare). For the following kinetic characterization running buffer was PBS-P pH 7.4 (20 mM phosphate buffer, 2.7 mM KCl, 137 mM NaCl, 0.05% surfactant P20). The flow cell was set to 25° C.—and the sample block set to 12° C.—and primed with running buffer twice. […] The dissociation phase was monitored for up to 720 s and triggered by switching from the sample solution to running buffer. The surface was regenerated by washing with 10 mM Glycine pH 1.5 for 60 s at a flow rate of 30 μl/min. Bulk refractive index differences were corrected by subtracting the response obtained from an anti-histidine surface. Blank injections are also subtracted (=double referencing). For calculation of KD and kinetic parameters the Langmuir 1:1 model was used.

[1] = molecular target: T2, recombinant human CD40_ECD (human, UniProt P25942 21-193); experiment: SPR Biacore T200, huCD40 ECD analyte, apparent KD
T2 construct: also called human CD40 extra cellular domain
Procedure: The capacity of the bispecific constructs to bind human CD40 was assessed by surface plasmon resonance (SPR). […] Bulk refractive index differences were corrected by subtracting the response obtained from a goat anti human F(ab′)2 surface. Blank injections are also subtracted (=double referencing). For calculation of apparent KD and other kinetic parameters the Langmuir 1:1 model was used. The apparent Kd was calculated using the Biacore™ B4000 evaluation software (version 1.1).

[2] = molecular target: T3, human 4-1BB on Jurkat-hu4-1BB-NFκB-luc2 reporter cells (human, UniProt Q07011 24-255); experiment: cell-based or functional assay
T3 sequence (Q07011 24-255 limits assumed): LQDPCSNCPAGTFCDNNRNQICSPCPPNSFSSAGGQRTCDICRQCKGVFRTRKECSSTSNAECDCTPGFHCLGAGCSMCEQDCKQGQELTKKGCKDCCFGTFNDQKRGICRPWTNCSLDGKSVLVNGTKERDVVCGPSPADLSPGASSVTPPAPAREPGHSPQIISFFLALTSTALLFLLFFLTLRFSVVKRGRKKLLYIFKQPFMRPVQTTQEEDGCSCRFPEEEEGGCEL

[3] = molecular target: T3, human 4-1BB on Jurkat-hu4-1BB-NFκB-luc2 …; experiment: cell-based or functional assay; remark: listed apart in the source

Kd (recombinant human FAP): 8.31 nM | koff (recombinant human FAP): 0.000296 s⁻¹ | kon (recombinant human FAP): 35600 M⁻¹ s⁻¹ | t 1/2 (recombinant human FAP): 39.1 min | Kd [1]: 7.2 nM | koff [1]: 0.00681 s⁻¹ | kon [1]: 945000 M⁻¹ s⁻¹ | t 1/2 [1]: 1.7 min
B1: FAP (4B9)-CD40 Contorsbody P1AE2052 (bispecific antibody, IgG1)
chain 1: not shown
chain 2: DIQMTQSPSSLSASVGDRVTITCRSSQSLVHSNGNTFLHWYQQKPGKAPKLLIYTVSNRFSGVPSRFSGSGSGTDFTLTISSLQPEDFATYFCSQTTHVPWTFGGGTKVEIKRTVAAPSVFIFPPSDEQLKSGTASVVCLLNNFYPREAKVQWKVDNALQSGNSQESVTEQDSKDSTYSLSSTLTLSKADYEKHKVYACEVTHQGLSSPVTKSFNRGECGGGGSGGGGSDKTHTCPPCPAPEAAGGPSVFLFPPKPKDTLMISRTPEVTCVVVDVSHEDPEVKFNWYVDGVEVHNAKTKPREEQYNSTYRVVSVLTVLHQDWLNGKEYKCKVSNKALGAPIEKTISKAKGQPREPQVCTLPPSRDELTKNQVSLSCAVKGFYPSDIAVEWESNGQPENNYKTTPPVLDSDGSFFLVSKLTVDKSRWQQGNVFSCSVMHEALHNHYTQKSLSLSPGKGGGGSGGGGSEVQLLESGGGLVQPGGSLRLSCAASGYSFTGYYIHWVRQAPGKGLEWVGRVIPNAGGTSYNQKFKGRFTISVDNSKNTAYLQMNSLRAEDTAVYYCAREGIYWWGQGTTVTVSSASTKGPSVFPLAPSSKSTSGGTAALGCLVKDYFPEPVTVSWNSGALTSGVHTFPAVLQSSGLYSLSSVVTVPSSSLGTQTYICNVNHKPSNTKVDKKVEPKSCGGGGSGGGGSGGGSGGGGSEIVLTQSPGTLSLSPGERATLSCRASQSVTSSYLAWYQQKPGQAPRLLINVGSRRATGIPDRFSGSGSGTDFTLTISRLEPEDFAVYYCQQGIMLPPTFGQGTKVEIKSSASTKGPSVFPLAPSSKSTSGGTAALGCLVKDYFPEPVTVSWNSGALTSGVHTFPAVLQSSGLYSLSSVVTVPSSSLGTQTYICNVNHKPSNTKVDKKVEPKSC
notes: 2+1 contorsbody; IgG1 Fc knob/hole, P329G LALA

EC50 of NFκB-luciferase activation in Jurkat-hu4-1BB-NFκB-luc2 cells with NIH/3T3-huFAP clone 19 [2]: 0.321 nM | area under the curve (AUC) of NFκB-luciferase activation in Jurkat-hu4-1BB-NFκB-luc2 cells with NIH/3T3-huFAP clone 19 [3]: 15500
B2: anti-4-1BB (20H4.9) huIgG1 P329GLALA antibody (antibody, V domains shown)
VH: QVQLQQWGAGLLKPSETLSLTCAVYGGSFSGYYWSWIRQSPEKGLEWIGEINHGGYVTYNPSLESRVTISVDTSKNQFSLKLSSVTAADTAVYYCARDYGPGNYDWYFDLWGRGTLVTVSS
VL: EIVLTQSPATLSLSPGERATLSCRASQSVSSYLAWYQQKPGQAPRLLIYDASNRATGIPARFSGSGSGTDFTLTISSLEPEDFAVYYCQQRSNWPPALTFGGGTKVEIK

EC50 of NFκB-luciferase activation in Jurkat-hu4-1BB-NFκB-luc2 cells with NIH/3T3-huFAP clone 19 [2]: 0.701 nM | area under the curve (AUC) of NFκB-luciferase activation in Jurkat-hu4-1BB-NFκB-luc2 cells with NIH/3T3-huFAP clone 19 [3]: 13000
B3: anti-4-1BB (20H4.9) huIgG4 (antibody, V domains shown)
VH: B2 VH
VL: B2 VL
